Measured values as given in US11459389 (dated 2022).
Where a chain is given by its changes, count along the chain named. Blank lines part the entries; values can stand above or below the binder they belong to.

How the values were obtained:
Assay in all cases: FACS
human Clec9A = human Clec9A (human, UniProt Q6UXN8)
human Clec4E = target: T1, human Clec4E (human, UniProt Q9ULY5)
T1 chain: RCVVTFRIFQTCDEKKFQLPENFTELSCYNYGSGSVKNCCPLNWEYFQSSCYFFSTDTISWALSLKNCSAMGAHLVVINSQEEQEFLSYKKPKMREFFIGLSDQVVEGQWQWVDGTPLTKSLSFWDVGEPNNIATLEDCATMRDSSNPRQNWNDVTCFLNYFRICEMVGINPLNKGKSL

human Clec5A = target: T2, human Clec5A (human, UniProt Q9NY25)
T2 chain: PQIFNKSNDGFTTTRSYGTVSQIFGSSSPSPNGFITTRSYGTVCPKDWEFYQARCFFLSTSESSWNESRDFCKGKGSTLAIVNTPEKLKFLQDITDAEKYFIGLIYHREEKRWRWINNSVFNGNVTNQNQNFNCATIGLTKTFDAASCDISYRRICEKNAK

human Clec12B = target: T3, human Clec12B (human, UniProt Q2HXU8)
T3 chain: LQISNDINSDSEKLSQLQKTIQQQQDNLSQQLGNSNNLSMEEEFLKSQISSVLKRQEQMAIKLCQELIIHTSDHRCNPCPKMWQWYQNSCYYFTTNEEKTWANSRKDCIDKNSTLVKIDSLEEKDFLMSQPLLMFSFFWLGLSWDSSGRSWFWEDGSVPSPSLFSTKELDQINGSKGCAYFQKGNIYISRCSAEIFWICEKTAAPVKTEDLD

human CD94 = target: T4, human CD94 (human, UniProt Q13241)
T4 chain: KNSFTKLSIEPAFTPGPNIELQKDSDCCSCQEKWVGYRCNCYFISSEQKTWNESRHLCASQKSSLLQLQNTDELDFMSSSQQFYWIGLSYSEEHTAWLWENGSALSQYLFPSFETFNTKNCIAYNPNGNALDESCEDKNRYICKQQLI

human KLRF2 = target: T5, human KLRF2 (human, UniProt D3W0D1)
T5 chain: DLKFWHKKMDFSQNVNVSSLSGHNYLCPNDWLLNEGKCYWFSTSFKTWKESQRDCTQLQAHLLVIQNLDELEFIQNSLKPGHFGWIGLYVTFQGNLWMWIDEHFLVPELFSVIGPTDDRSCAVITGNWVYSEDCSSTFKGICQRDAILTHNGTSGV

human KLRG1 = target: T6, human KLRG1 (human, UniProt Q96E93)
T6 chain: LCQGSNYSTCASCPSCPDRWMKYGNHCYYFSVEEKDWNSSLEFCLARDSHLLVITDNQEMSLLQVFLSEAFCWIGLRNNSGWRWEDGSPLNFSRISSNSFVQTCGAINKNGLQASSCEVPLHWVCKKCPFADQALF

human KLRF1 = target: T7, human KLRF1 (human, UniProt Q9NZS2)
T7 chain: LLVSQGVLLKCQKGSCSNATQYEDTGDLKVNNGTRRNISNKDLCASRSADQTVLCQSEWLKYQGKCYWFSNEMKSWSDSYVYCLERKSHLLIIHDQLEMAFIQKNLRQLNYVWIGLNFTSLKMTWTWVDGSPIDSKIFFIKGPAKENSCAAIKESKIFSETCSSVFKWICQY

human Clec10A = target: T8, human Clec10A (human, UniProt Q8IUN9)
T8 chain: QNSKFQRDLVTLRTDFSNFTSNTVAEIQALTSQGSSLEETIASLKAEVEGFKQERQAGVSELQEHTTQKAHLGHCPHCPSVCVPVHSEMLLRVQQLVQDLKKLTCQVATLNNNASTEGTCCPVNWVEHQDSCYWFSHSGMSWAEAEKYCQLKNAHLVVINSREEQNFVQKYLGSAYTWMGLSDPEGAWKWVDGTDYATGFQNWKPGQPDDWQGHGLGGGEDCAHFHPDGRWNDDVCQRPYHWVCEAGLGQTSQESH

human CD209 = target: T9, human CD209 (human, UniProt Q9NNX6)
T9 chain: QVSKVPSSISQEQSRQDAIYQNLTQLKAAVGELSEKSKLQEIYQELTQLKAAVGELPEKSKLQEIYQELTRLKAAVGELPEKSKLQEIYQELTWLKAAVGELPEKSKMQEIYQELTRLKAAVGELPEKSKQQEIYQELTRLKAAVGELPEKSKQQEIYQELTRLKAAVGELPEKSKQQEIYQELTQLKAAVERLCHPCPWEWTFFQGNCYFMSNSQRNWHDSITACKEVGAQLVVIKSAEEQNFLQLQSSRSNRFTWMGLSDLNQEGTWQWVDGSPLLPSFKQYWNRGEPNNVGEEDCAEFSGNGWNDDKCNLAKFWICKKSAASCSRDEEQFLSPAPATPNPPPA

human Clec7A = target: T10, human Clec7A (human, UniProt Q9BXN2)
T10 chain: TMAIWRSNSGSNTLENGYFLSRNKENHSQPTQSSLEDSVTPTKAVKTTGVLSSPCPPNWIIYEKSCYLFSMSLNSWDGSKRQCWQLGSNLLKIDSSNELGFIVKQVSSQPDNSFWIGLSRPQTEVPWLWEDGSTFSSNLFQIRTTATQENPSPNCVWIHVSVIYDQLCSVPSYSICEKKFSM

human CD161 = human CD161 (human, UniProt Q12918)

Chain of human Clec9A (Q6UXN8 57-241): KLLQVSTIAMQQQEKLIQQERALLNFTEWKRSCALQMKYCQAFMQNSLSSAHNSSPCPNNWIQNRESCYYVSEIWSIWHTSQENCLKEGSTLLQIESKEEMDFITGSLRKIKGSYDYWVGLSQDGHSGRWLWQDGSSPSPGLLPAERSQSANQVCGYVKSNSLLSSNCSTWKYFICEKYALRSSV

- binding result (human Clec9A): no binding
- binding result (human Clec4E): no binding
- binding result (human Clec5A): no binding
- binding result (human Clec12B): no binding
- binding result (human CD94): no binding
- binding result (human KLRF2): no binding
- binding result (human KLRG1): no binding
- binding result (human KLRF1): no binding
- binding result (human Clec10A): no binding
- binding result (human CD209): no binding
- binding result (human Clec7A): no binding
B1: KW1.3.12 (antibody)
chain 1: EVQLVESGGGLVQPGGSLRLSCAASGFTFSSYAMSWVRQAPGKGLEWVSTISGSGGSTYYADSVKGRFTISRDNSRNTLYLQMNSLRAEDTAVYYCARGGLIPSGFDYWGQGTLVTVSS
chain 2: DIQMTQSPSSLSASVGDRVTITCRASQSISSYLNWYQQKPGKAPKLLIYAASSLLSGVPSRFSGSGSGTDFTLTISSLQPEDFATYYCQQTYSAPLTFGQGTKVEIK

- binding result (human Clec9A): no binding
- binding result (human Clec4E): no binding
- binding result (human Clec5A): no binding
- binding result (human Clec12B): no binding
- binding result (human CD94): no binding
- binding result (human KLRF2): no binding
- binding result (human KLRG1): no binding
- binding result (human KLRF1): no binding
- binding result (human Clec10A): no binding
- binding result (human CD209): no binding
- binding result (human Clec7A): no binding
B2: KW7.3.7 (antibody)
chain 1: B1 chain 1 with T50A, I51T, V64A, R76K, L101Y, I102L, S104D, G105A, Q111R
chain 2: B1 chain 2 with R24W, K39E, L55Q, A94T

- Kd (human CD161): 233 pM
B3: KW1.2.1 (antibody)
chain 1: B1 chain 1 with F27S
chain 2: B1 chain 2 with S65G, A94T

- binding result (human Clec9A): no binding
- binding result (human Clec4E): no binding
- binding result (human Clec5A): no binding
- binding result (human Clec12B): no binding
- binding result (human CD94): no binding
- binding result (human KLRF2): no binding
- binding result (human KLRG1): no binding
- binding result (human KLRF1): no binding
- binding result (human Clec10A): no binding
- binding result (human CD209): no binding
- binding result (human Clec7A): no binding
B4: KM12.4.7 (antibody)
chain 1: EVQLVESGGGLVQPGGSLRLPCAASGFTFSSYAMSWIRQAPGKGLEWVSAISGSGGSIYYADSVKGRFTISRDNSKNTLYLQMDSLRAEDTAVYYCARGYSDSYFYGPYYTFDYWGQGTLVTVSS
chain 2: not shown
